B1: Protein ECT2 (Homo sapiens), Q9H8V3 (parent)
chain: MAENSVLTSTTGRTSLADSSIFDSKVTEISKENLLIGSTSYVEEEMPQIETRVILVQEAGKQEELIKALKTIKIMEVPVIKIKESCPGKSDEKLIKSVINMDIKVGFVKMESVEEFEGLDSPEFENVFVVTDFQDSVFNDLYKADCRVIGPPVVLNCSQKGEPLPFSCRPLYCTSMMNLVLCFTGFRKKEELVRLVTLVHHMGGVIRKDFNSKVTHLVANCTQGEKFRVAVSLGTPIMKPEWIYKAWERRNEQDFYAAVDDFRNEFKVPPFQDCILSFLGFSDEEKTNMEEMTEMQGGKYLPLGDERCTHLVVEENIVKDLPFEPSKKLYVVKQEWFWGSIQMDARAGETMYLYEKANTPELKKSVSMLSLNTPNSNRKRRRLKETLAQLSRETDVSPFPPRKRPSAEHSLSIGSLLDISNTPESSINYGDTPKSCTKSSKSSTPVPSKQSARWQVAKELYQTESNYVNILATIIQLFQVPLEEEGQRGGPILAPEEIKTIFGSIPDIFDVHTKIKDDLEDLIVNWDESKSIGDIFLKYSKDLVKTYPPFVNFFEMSKETIIKCEKQKPRFHAFLKINQAKPECGRQSLVELLIRPVQRLPSVALLLNDLKKHTADENPDKSTLEKAIGSLKEVMTHINEDKRKTEAQKQIFDVVYEVDGCPANLLSSHRSLVQRVETISLGEHPCDRGEQVTLFLFNDCLEIARKRHKVIGTFRSPHGQTRPPASLKHIHLMPLSQIKKVLDIRETEDCHNAFALLVRPPTEQANVLLSFQMTSDELPKENWLKMLCRHVANTICKADAENLIYTADPESFEVNTKDMDSTLSRASRAIKKTSKKVTRAFSFSKTPKRALRRALMTSHGSVEGRSPSSNDKHVMSRLSSTSSLAGIPSPSLVSLPSFFERRSHTLSRSTTHLI
partner: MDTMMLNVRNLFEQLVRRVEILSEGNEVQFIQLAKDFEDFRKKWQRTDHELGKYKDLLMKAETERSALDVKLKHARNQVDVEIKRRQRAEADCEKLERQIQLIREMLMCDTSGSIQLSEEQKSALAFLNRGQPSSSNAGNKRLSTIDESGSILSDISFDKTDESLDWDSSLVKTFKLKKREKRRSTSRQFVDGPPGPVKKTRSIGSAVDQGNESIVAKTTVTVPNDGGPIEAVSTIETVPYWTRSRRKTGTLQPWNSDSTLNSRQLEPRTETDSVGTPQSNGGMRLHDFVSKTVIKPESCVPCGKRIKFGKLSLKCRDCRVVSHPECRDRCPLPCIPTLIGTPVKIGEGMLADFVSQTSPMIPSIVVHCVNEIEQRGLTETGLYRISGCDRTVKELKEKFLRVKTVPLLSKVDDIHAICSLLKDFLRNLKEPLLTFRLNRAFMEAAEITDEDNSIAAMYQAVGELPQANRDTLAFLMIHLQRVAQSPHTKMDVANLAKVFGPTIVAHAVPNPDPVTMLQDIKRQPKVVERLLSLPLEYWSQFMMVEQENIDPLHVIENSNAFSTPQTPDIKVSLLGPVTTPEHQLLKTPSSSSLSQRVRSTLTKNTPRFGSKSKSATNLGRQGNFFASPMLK
B2: Rac GTPase-activating protein 1 (Homo sapiens), Q9H0H5 (parent)
chain: B1 partner
partner: B1 chain

This is an account of results in IntAct's records for PubMed 25068414.

One test covers variants of B1. Conditions: with rgap1_human RACGAP1, Q9H0H5.
As for L195M, the “effect of a mutation on the interaction” value is given as “disrupting interaction”.

The next test covers variants of B1. Conditions: with rgap1_human RACGAP1, Q9H0H5. The source holds these as a separate data set.
For V153A, the “effect of a mutation on the interaction” value was “decreasing interaction”.

The variants in a further test derive from B1. Conditions: with rgap1_human RACGAP1, Q9H0H5. The source holds these as a separate data set.
In the case of P163E, the “effect of a mutation on the interaction” value was “decreasing interaction”.

The variants in a further test derive from B1. Conditions: with rgap1_human RACGAP1, Q9H0H5. This is another data set of the same source.
Regarding V153A;L195M, the “effect of a mutation on the interaction” value is recorded as “disrupting interaction”.

Another test covers variants of B2. Conditions: with ect2_human ECT2, Q9H8V3.
W167A: the “effect of a mutation on the interaction” value was “decreasing interaction”.
